# Measured values published in the DeepSol protein solubility set.
# Test: soluble on expression in E. coli; label from the status in PepcDB or PDB records
row,Sequence,soluble on expression in E. coli
1,MAKVVIPNGAEGEEAVYREQVIREYSGNPFIEALPPIYAPEEVVEKLAVYPPYSEEERNLDAHYRIHLTQKLFHCFQPLPQHLDLESRISRVIRQGYLPRNPVSKEYVISLKDGYRAVQNCDINANQQFRSTACGFTIIGVSGMGKSVSINRVLSMYPQVIVHSRYKGQGFSFYQLVWLKLDTPFDGSVKGLCIDFFNKVDQLMGTDFYKKVANSRKSVDYMLTLMCQVVRNTGLGLLIIDEVQHLCGARGLGDERMLNFFVTLVNTAGVPIILIATPKAMSILQSEFRQARRGSGQGDMVWERLQYDENFEILLDSLWQYQWTRKESILTKSMRELLYEESQGIIDIICKIIVMAQTIAISTGKEQVDEKLIQQVAREHLQLVRPMILALKSGNIREIAKYSDICTAEIDYGKLVNQEKLPVEMRMRIRAIKEQKEKREKENKTSKMEQALYKLAELGIDVAKARKAVEAVFEAEGHNIDEGQLVIKAIQVLSGNTTEKKSKKVKTTPKSENDLRYIVEEGRNQGKSAYDALKDKGYIKGEKNDTLFKAV,not soluble
2,MAKVYYEKDVTVNVLKEKKVAIIGYGSQGHAHAQNLRDNGFDVVVGLRKGKSWDKAKEDGFSVYTVAEAAKQADVVMILLPDELQPEVYEEEIAPNLQAGNSLVFAHGFNVHFDQVKPPVNVDVFLVAPKGPGHLVRRTFSEGGAVPALFAVYQDATGVATEKALSYADGIGATRAGVLETTFKEETETDLFGEQAVLCGGVTALVKAGFETLVDAGYQPELAYFECLHELKLIVDLMYEGGLENMRYSVSDTAQWGDFVSGPRVVTEDTKKAMGTVLAEIQDGTFARGWIAEHKAGKPNFYATNEKENEHEIEVVGRKLRGMMPFVQPRVKAGVK,not soluble
3,MAKYFDIDDILIEEEFVPVLFHKTANGVTIDPSAETNCVSLLIPSAKAEQGSKVELPFWLAHELHLRQAVTINLPPCFDQKTRLEVQADAAYVDLRSRCPYFYEFGCKIEPLVTDRTLGILLSTAFKIRYKEALTKVYTAAHITASKYLSFLTKEETNLYEAAHLSMTAFKKWRTGGPRFQRASILGRKRKDSN,soluble
4,MALALTLREYEFSVLLLEARELPEKVDDPRPLALSYGSRLILQRLDIWKNLTQPAPITTIHISNRGHFGHAVLTPDDAGVPALGYVVNYHDLYHSMGRAIRGSNAVYQTNALVTAIRTDLSLAQVAYQQGSTTRQVRARLLVLADGGKLAEQIDGVRYHTYDYQQTAIVANVKVESPRPGTAFERFTLNGPLALLPSGEGYALVWTMPAAAAEKILKLDDRSFLLHLHEQFGDRMGEFTHVGPRSSFPLILKHASTITGHRAVLIGNAAQALHPVAGQGFNLGLRDAWELASEISRIPSGTPGEPGSTRMLAAYSRRRQSDKRISRLFTDSLVKLFTADLPLVQTCSGMGLAALDNLPPARRLIAHQMIFGTKGWFIGLEHHHHHH,soluble
5,MALDNAKTSQKLQSLAELDGKAPSHRNLNVQTWSTAEGAKVLFVEARELPMFDLRLIFAAGSSQDGNAPGVALLTNAMLNEGVAGKDVGAIAQGFEGLGADFGNGAYKDMAVASLRSLSAVDKREPALKLFAEVVGKPTFPADSLARIKNQMLAGFEYQKQNPGKLASLELMKRLYGTHPYAHASDGDAKSIPPITLAQLKAFHAKAYAAGNVVIALVGDLSRSDAEAIAAQVSAALPKGPALAKIEQPAEPKASIGHIEFPSSQTSLMLAQLGIDRDDPDYAAVSLGNQILGGGGFGTRLMSEVREKRGLTYGVYSGFTPMQARGPFMINLQTRAEMSEGTLKLVQDVFAEYLKNGPTQKELDDAKRELAGSFPLSTASNADIVGQLGAMGFYNLPLSYLEDFMRQSQELTVEQVKAAMNKHLNVDKMVIVSAGPTVAQKPLEHHHHHH,not soluble
6,MALEKEEEASQNGAFCVLDGLYCEEETGFVEDDLDDDGDLDFLEKSDESVVKFQFLPLLDMFLWDDDEILSLISKENETNPCFGEQILDGFLVSCRKEALDWVLRVKSHYGFTSLTAILAVNYFDRFMTSIKLQTDKPWMSQLVAVASLSLAAKVEEIQVPLLLDLQVEEARYLFEAKTIQRMELLILSTLQWRMHPVTPISFFDHIIRRFGSKWHQQLDFCRKCERLLISVIADTRFMRYFPSVLATAIMILVFEELKPCDEVEYQSQITTLLKVNQEKVNECYELLLEHNPSKKRMMNLVDQDSPSGVLDFDDSSNSSWNVSTTASVSSSSSSPEPLLKRRRVQEQQMRLPSINRMFLDVLSSPR,soluble
7,MALHVDYTAERAFARIIGGLRSARLDAGLSQNALAAGMPVRGRAISEWETRAVEPTLGHLIQWARELGRRLVIVGRDGELRVGPVRQRPGETFEIFERRRLAVPLRNRRLALGMAQGELGALVGVSRDSIQRWELVRVPPRPIAHVVWAQKLGCSLDILVVPDGARRVRRTGFAPAGLAGSTLERPGLRVQRLGL,not soluble
8,MALSDVKVRSAKPEAKAYKLTDGEGMVLLVHPNGSKYWRLRYRFGGKEKMLALGKYPEVSLADARARRDEARKLLANGVDPSENKKAVKVEQEQEAITFEVVARDWHASNQKWSASHSARVLKSLEDNLFTAIGKRNIAELKTRDLLVPIKAVESSGRLEVAARLQQRTTAIMRFAVQSGLIDYNPAQEIAGAVATAKRQHRAALELNRIPELLHRIDHYSGRPLTRLAVELTLLVFIRSSELRFARWSEIDFETAMWTIPGEREQLEGVKHSQRGSKMRTPHLVPLSRQALSILEKIKSMSGNRELIFVGDHDPRKPMSENTVNKALRVMGYDTKVEVCGHGFRTMACSSLIESGLWSRDAVERQMSHQERSSVRAAYIHKAEHLGERRLMFEVVNKNWPPS,not soluble
9,MALVDQESCLRGFYSVFLRHCDVEPAIATFDGVRSPPDVVRLYPKPRYDYTLASAFLGTAVSGYITSRRDNAPNKNTGHRYVYTTSILIAVVTSVDTQHRSPSRCFMAMGESYFLQDEKCVFWLEHHHHHH,not soluble
10,MALVNSILKANEYSFKVPEFDGKNVSSILGFDSNQLPANAPIEDRRSAATCLQTRGMLLGVFDGHAGCACSQAVSERLFYYIAVSLLPHETLLEIENAVESGRALLPILQWHKHPNDYFSKEASKLYFNSLRTYWQELIDLNTGESTDIDVKEALINAFKRLDNDISLEAQVGDPNSFLNYLVLRVAFSGATACVAHVDGVDLHVANTGDSRAMLGVQEEDGSWSAVTLSNDHNAQNERELERLKLEHPKSEAKSVVKQDRLLGLLMPFRAFGDVKFKWSIDLQKRVIESGPDQLNDNEYTKFIPPNYHTPPYLTAEPEVTYHRLRPQDKFLVLATDGLWETMHRQDVVRIVGEYLTGMHHQQPIAVGGYKVTLGQMHGLLTERRTKMSSVFEDQNAATHLIRHAVGNNEFGTVDHERLSKMLSLPEELARMYRDDITIIVVQFNSEGHHHHHH,soluble
11,MAMEKPVLWYIADPMCSWCWGFAPVIENIRQEYSAFLTVKIMPGGLRPGTNTPLLPEKRAQILHHWHSVHITTGQPFTFENALPEGFIYDTEPACRGVVSVSLIEPEKVFPFFAAIQRAFYVGQEDVAQLAILKKLAVDLGIPESRFTPVFQSDEAKQRTLAGFQRVAQWGISGFPALVVESGTDRYLITTGYRPIEALRQLLDTWLQQHGV,soluble
12,MANFIDRRLNAKGKSTVNRQRFINRYKQQIKKAVSDAVTRRSVTDVDKGEKISIPTRDISEPMFHQGKGGVRDRVHPGNDQFTRGDKIDRPQGGSGGGAGKGDASDSGEGNDDFVFEISKDEYLELLFEDLELPNLQKNRLNKLVEYQIYRAGFTNDGVPANINIVRSLRSSLARRIAMSASKKKLLKESEQELAELENIPGTKAELILDLKAQIEELKRKIAKVPFIDTFDLRFNNFSRREVPSSQAVMFCLMDVSGSMDQATKDMAKRFYILLYLFLTRTYKNLEVVYIRHHTQAKEVDEHEFFYSQETGGTIVSSALKLMHEIQQARYPADEWNIYAAQASDGDNWADDSPTCKQLLEQKILPLVRYFSYIEITNRAHQTLWREYESLQQHYDNIAVQHIRQAEDIYPVFRELFKKQAVLEHHHHHH,not soluble
13,MANFVQLSETPAACSSNPCGPEAAGTCKETNSGYICRCNQGYRISLDGTGNVTCIVRQESG,soluble
14,MANIEIYTKATCPFCHRAKALLNSKGVSFQEIAIDGDAVKREEMIKRSGRTTVPQIFIDAQHIGGCDDLYALDARGGLDPLLR,not soluble
15,MANLKRYNDGLFKLDLWIRRLLTIGESNELYTALCDGVCDIVGAGTAVFTTIDMQAGTLTYMAASGGWNAMVKGLAVPMKSGNLCASVAACGTPLRIDQISSRTDSCELLQVMDMDAAVLVPVLEEGRVTACLSAFRVGNPFDQIDEQLLQQYAHTASMVLRTVRLMVDLR,not soluble
16,MANQKKDSLSTLFSEEVHGPFVTFLFNTHVAHQNVEKDSLVLKNFAKAAKTRFEKKFPEEKWSVFQEKIDALLADASFWRNGTASVSIILSPENTFVQRLDVPVDDQYYVDTIPYLLGLVKDKQFNYHYYLLALNRDSMKLYKVDHTTVTPVELPKDAPTDVVTALGDELTGGNLNFSTQGSSNGSKEGVAYHSINTKDKEVEIDWVNYYQAVDTFLKDQLDNPEKLPLYLYALPENQTLFKKIAKNPYYDCSISVAASPAQATIQDIRSASEKIAAELTEKETASYNKLLDRKFLDQFTDISPAAADGKISHLFIATSLFVTENNEMSSEEYDRRKLLNTIAYQVIQNGGQVFVLDQKAAPDEKSLAAILRY,not soluble
17,MANRLRTGIDVLDRKLDGGIPAGSIVVLSAQPASQAELFLYELTATRGTLWLSLDRTAESVIASIEQTPANTGDPTVRHISGEAPLDNAGKLVSALPETSNLIVDPLDVLEAQEPHSRFRAFMNDLQNHIVNTGSLAIVHCLDGRDVPPLRDTTEHFADVVFQLNTTTNGDEVENRLAIPKFRGGRAPTDIIKLNLVEEVSIDTSRDIALEHHHHHH,not soluble
18,MANVESLYKELTAEWSKRPPNTVKCGQLLDQLKVALVKMAFLPTDGNDAQSSKKQLILARSVLEVAVEHSVLSKDLLAFERYMAQLKCYYYDYAKIIGESESKYKLLGLNLLYLLSGNRVSDFHTELELLSVDVIQHNQFIRPILALEQYIMEGRYNKIFQAKSTVPVEVYSYFMDLLLETVRDEIGACIEKSYDKISAKDAAKRLNLRVPDEIKAFGAKRQWKLEASGDYSFTDRSVKPKELLPSEELAEQVLSYARDLEMIV,not soluble
19,MAPGTKKKSDMAKFTFYKDRLMTFKNFEYDRDPDAKCTSQAVAQAGFYCTGPQSGKCAFCNKELDFDPEDDPWYEHTKRDEPCEFVRIGKLDDSELTINDTVRLSQTAMIMTKLFEHEMMINNLSNHSSSDALFDQLKKVPNTASTTKSNSRRGK,not soluble
20,MAPHGDGLSDIEEPEVDAQSEILRPISSVVFVIAMQAEALPLVNKFGLSETTDSPLGKGLPWVLYHGVHKDLRINVVCPGRDAALGIDSVGTVPASLITFASIQALKPDIIINAGTCGGFKVKGANIGDVFLVSDVVFHDRRIPIPMFDLYGVGLRQAFSTPNLLKELNLKIGRLSTGDSLDMSTQDETLIIANDATLKDMEGAAVAYVADLLKIPVVFLKAVTDLVDGDKPTAEEFLQNLTVVTAALEGTATKVINFINGRNLSDL,soluble
21,MAPITVGDVVPDGTISFFDENDQLQTVSVHSIAAADGFLDFDLRIGVFGFSEVSMSHVPGFIGKAEELKSKGIDEIICFSVNDPFVMKAWGKTYQENKHVKFVADGSGEYTHLLGLELDLKDKGLGIRSRRFALLLDNLKVTVANVENGGEFTVSSAEDILKALLEHHHHHH,not soluble
22,MAPKVFYISDGTAITAEVFGHAVLSQFPLEFESLTIPFVETLAKAENVKRQINDCFITTGERPLVFHSIVKPEIRDIIYSSEGLDYDFLNTFVAPLEQHLGVSASPVLHRTHGKANQGYEARIDAINFAMDNDDGQTMKHMDQADLILLGVSRCGKTPSSLYLSMQFGIKAANYPFTEDDMDNLKLPEALKRNKKKLFGLTIDPVRLHEIRQSRMENSRYSSLKQCRLEVKEVEMMFKRERIPYIDTTNHSVEEIATKILDVTGLERHMFMAGDPLEHHHHHH,soluble
